Measurements from patent US20150291521, “PYRROL-1-YL BENZOIC ACID DERIVATIVES USEFUL AS MYC INHIBITORS” (DANA-FARBER CANCER INSTITUTE, INC., published 2015).

Columns and labels:
c-Myc/Max heterodimer = c-Myc/Max heterodimer (Homo sapiens, UniProt P01106-1;P61244 P01106-1:1-439,P61244:1-160); experiment: EMSA; complex formed with purified proteins; inhibited dose-dependently by compound 63; settings: tags: c-Myc full-length, His6 removed by thrombin (assay 1) or His6-c-Myc (reciprocal assay), label: 5' biotin-triethyleneglycol, self-complementary
Max/Max homodimer = Max/Max homodimer (Homo sapiens, UniProt P61244 P61244:1-160); experiment: EMSA; Max/Max/Ebox complex; disrupted by compound 101, not 79; settings: tags: His6-Max; chain copies: 2 (stated); label: 5' biotin-triethyleneglycol; self-complementary
Sequence of Max/Max homodimer (P61244 whole entry, one chain of several): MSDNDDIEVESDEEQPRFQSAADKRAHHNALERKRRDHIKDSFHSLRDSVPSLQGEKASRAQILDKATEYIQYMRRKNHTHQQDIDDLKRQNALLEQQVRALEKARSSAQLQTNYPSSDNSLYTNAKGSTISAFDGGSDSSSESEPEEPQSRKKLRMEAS

Sequence of c-Myc/Max heterodimer (P01106 16-454, chain 1 of 2): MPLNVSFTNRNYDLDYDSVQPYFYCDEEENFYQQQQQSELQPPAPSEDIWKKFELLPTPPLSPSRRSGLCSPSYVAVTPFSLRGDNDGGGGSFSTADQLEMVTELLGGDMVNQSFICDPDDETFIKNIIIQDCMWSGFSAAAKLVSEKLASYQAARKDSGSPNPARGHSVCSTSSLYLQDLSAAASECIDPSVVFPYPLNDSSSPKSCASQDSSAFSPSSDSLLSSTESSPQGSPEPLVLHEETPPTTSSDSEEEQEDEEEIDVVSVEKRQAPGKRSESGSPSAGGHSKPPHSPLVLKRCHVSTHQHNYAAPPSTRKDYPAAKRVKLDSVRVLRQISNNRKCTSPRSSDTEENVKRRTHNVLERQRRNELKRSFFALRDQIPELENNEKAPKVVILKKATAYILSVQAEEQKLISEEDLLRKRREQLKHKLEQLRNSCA
Sequence of c-Myc/Max heterodimer (P61244 whole entry, chain 2 of 2): as the sequence (P61244 whole entry, one chain of several) above

B1: Ebox DNA (dsDNA)
DNA 1: GGAAGCAGACCACGTGGTCTGCTTCC
DNA 2: GGAAGCAGACCACGTGGTCTGCTTCC
c-Myc/Max heterodimer
  binding result: binds
Max/Max homodimer
  binding result: binds
